From patent publication US20090239794A1, “HCV F PROTEIN AND USES THEREOF” (priority 2004, published 2009)
“And” between values parts separate entries of the source, which are not always exact repeats. Equal entries are not always repeated.

Test system: C57Bl/6 mice
Experiment: Protocol 2: ARFP immunization of mice, total anti-ARFP Ig ELISA
Conditions: for Titer (ARFP-specific Ig) / ELISA optical density (total anti-ARFP Ig), serum dilution 1/50 / ELISA optical density (total anti-ARFP Ig), serum dilution 1/100 / ELISA optical density (total anti-ARFP Ig), serum dilution 1/200 / ELISA optical density (total anti-ARFP Ig), serum dilution 1/400 / ELISA optical density (total anti-ARFP Ig), serum dilution 1/800 / ELISA optical density (total anti-ARFP Ig), serum dilution 1/1600: individual mice
[1] = 1st immunization (day 0), blood taken prior to immunization, listed as ARFP
[2] = 2nd immunization (day 14), blood taken prior to immunization, listed as ARFP
[3] = 3d immunization (day 29), blood taken prior to immunization, listed as ARFP
[4] = Sacrifice (day 52), listed as ARFP

B1: Fmut8Δ11: truncated recombinant HCV-1a F protein lacking the first 11 N-terminal residues shared with core; SEQ ID NO: 12; produced in E. coli (protein)
chain: PNVTPTVAHRTSSSRVAVRSLVEFTCCRAGALDWVCARRGRLPSGRNLEVDVSLSPRHVGPRAGPGLSPGTLGPSMAMRAADGRDGSCLPVALGLVGAPQTPGVGRAIWVRSSIPSRAASPTSWGTYRSSAPPLEALPGPWRMASGFWRTA
modifications: Hepatitis C virus
- Titer (ARFP-specific Ig) (1st immunization (day 0), blood taken prior to immunization): 0
- ELISA optical density (total anti-ARFP Ig), serum dilution 1/50 [1]: 0.211 and 0.209 and 0.199 and 0.218 and 0.323 and 0.278 and 0.229 and 0.166 and 0.236 and 0.243 and 0.247 and 0.208 and 0.206 and 0.205 and 0.217
- ELISA optical density (total anti-ARFP Ig), serum dilution 1/100 [1]: 0.128 and 0.115 (2×) and 0.174 and 0.208 and 0.186 and 0.171 and 0.152 and 0.161 (2×) and 0.145 and 0.134 and 0.132 and 0.142 and 0.127
- ELISA optical density (total anti-ARFP Ig), serum dilution 1/200 [1]: 0.123 and 0.150 and 0.128 and 0.136 (2×) and 0.114 and 0.111 and 0.121 and 0.113 (2×) and 0.104 and 0.117 and 0.164 and 0.144 and 0.140
- ELISA optical density (total anti-ARFP Ig), serum dilution 1/400 [1]: 0.132 and 0.164 and 0.114 and 0.118 and 0.116 and 0.121 and 0.133 and 0.115 and 0.104 and 0.110 and 0.120 and 0.128 and 0.191 and 0.138 and 0.126
- ELISA optical density (total anti-ARFP Ig), serum dilution 1/800 [1]: 0.119 and 0.138 and 0.113 and 0.118 and 0.115 (2×) and 0.117 and 0.128 and 0.108 and 0.103 and 0.105 and 0.123 and 0.134 and 0.137 and 0.114
- ELISA optical density (total anti-ARFP Ig), serum dilution 1/1600 [1]: 0.138 and 0.122 and 0.109 (2×) and 0.110 and 0.116 and 0.124 and 0.108 and 0.106 and 0.107 and 0.105 and 0.119 and 0.129 and 0.127 and 0.114
- ELISA optical density (total anti-ARFP Ig), serum dilution 1/50 [2]: 0.370 and 0.625 and 0.303 and 0.339 and 0.421 and 3.852 and 0.552 and 0.270 and 2.758 and 0.505 and >4.000 (3×) and 0.189 and 3.567
- ELISA optical density (total anti-ARFP Ig), serum dilution 1/100 [2]: 0.187 and 0.306 and 0.155 and 0.164 and 0.156 and 1.842 and 0.204 and 0.153 and 0.560 and 0.191 and 3.323 and 0.141 and 3.184 and >4.000 and 1.876
- ELISA optical density (total anti-ARFP Ig), serum dilution 1/200 [2]: 0.168 and 0.183 and 0.128 and 0.126 and 0.133 and 1.337 and 0.149 and 0.124 and 0.295 and 0.144 and 2.201 and 0.112 and 3.227 and >4.000 and 1.851
- ELISA optical density (total anti-ARFP Ig), serum dilution 1/400 [2]: 0.173 and 0.152 and 0.136 and 0.129 and 0.122 and 0.777 and 0.133 and 0.123 and 0.204 and 0.131 and 1.212 and 0.111 and 1.433 and 2.473 and 0.736
- ELISA optical density (total anti-ARFP Ig), serum dilution 1/800 [2]: 0.156 and 0.130 and 0.123 and 0.121 (2×) and 0.539 and 0.125 and 0.124 and 0.173 and 0.122 and 0.622 and 0.113 and 0.790 and 2.199 and 0.427
- ELISA optical density (total anti-ARFP Ig), serum dilution 1/1600 [2]: 0.137 and 0.126 and 0.118 and 0.122 and 0.119 and 0.546 and 0.125 and 0.146 and 0.154 and 0.115 and 0.337 and 0.113 and 0.462 and 1.296 and 0.271
- Titer (ARFP-specific Ig) [2]: 0 (9×) and 200 (2×) and 50 and 400 (2×) and >1600
- ELISA optical density (total anti-ARFP Ig), serum dilution 1/50 [3]: 3.831 and 3.849 and 3.373 and 3.573 and 2.987 and 2.874 and 2.626 and 3.470 and 3.517 and 1.225 and 3.635 and 0.801 and 3.936 and 3.926 and >4.000
- ELISA optical density (total anti-ARFP Ig), serum dilution 1/100 [3]: 3.525 and 3.898 and 2.898 and 1.264 and 0.982 and 1.468 and 1.197 and 2.613 and 1.648 and 0.560 and >4.000 (2×) and 0.304 and 3.959 and 3.978
- ELISA optical density (total anti-ARFP Ig), serum dilution 1/200 [3]: 2.387 and 3.359 and 1.364 and 1.013 and 0.684 and 0.906 and 0.657 and 3.189 and 1.518 and 0.303 and 3.924 and 0.240 and 3.936 and 3.853 and >4.000
- ELISA optical density (total anti-ARFP Ig), serum dilution 1/400 [3]: 1.910 and 2.646 and 1.019 and 0.830 and 0.473 and 0.493 and 0.397 and 3.666 and 1.315 and 0.291 and 3.086 and 0.174 and 3.874 and 3.765 and >4.000
- ELISA optical density (total anti-ARFP Ig), serum dilution 1/800 [3]: 1.316 and 1.965 and 0.647 and 0.556 and 0.366 and 0.536 and 0.266 and 3.106 and 1.194 and 0.218 and >4.000 and 0.188 and 3.874 and 3.903 and 3.429
- ELISA optical density (total anti-ARFP Ig), serum dilution 1/1600 [3]: 0.770 and 1.960 and 0.558 and 0.428 and 0.284 and 0.513 and 0.298 and 3.423 and 1.055 and 0.187 and 3.573 and 0.266 and 3.907 and 3.939 and 3.210
- Titer (ARFP-specific Ig) [3]: 800 and >1600 (7×) and 400 (2×) and 100 (2×) and 200 and 50 and 0
- ARFP-specific Ig titer, mean+/−standard deviation (Protocol 2, before the 2nd immunization): 190.0+/−401.7
- anti-ARFP Ig titer, mean+/−standard deviation (Protocol 2, day 29): 883.3+/−694.7
- anti-ARFP Ig titer, mean+/−standard deviation (Protocol 2, day 52): 1493+/−272.0
- ELISA optical density (total anti-ARFP Ig), serum dilution 1/50 [4]: 3.593 and 3.623 and 2.931 and 3.934 and 3.865 and >4.000 and 3.796 and 3.843 and 3.456 and 3.855 and 3.717 and 3.534 and 3.636 and 3.780 and 3.783
- ELISA optical density (total anti-ARFP Ig), serum dilution 1/100 [4]: 3.071 and 3.581 and 2.555 and 3.459 and >4.000 (2×) and 3.873 and 3.848 and 3.622 and 3.966 and 1.524 and 2.193 and 3.518 and 2.628 and 3.952
- ELISA optical density (total anti-ARFP Ig), serum dilution 1/200 [4]: 1.902 and 1.744 and 1.431 and 2.418 and 2.646 and >4.000 and 3.807 and 3.818 and 3.641 and 3.184 and 3.740 and 1.047 and 2.844 and 2.829 and 3.142
- ELISA optical density (total anti-ARFP Ig), serum dilution 1/400 [4]: 1.187 and 1.526 and 0.987 and 1.257 and 2.378 and >4.000 and 3.802 and 3.891 and 3.742 and 3.885 and 3.660 and 1.001 and 3.548 and 3.151 and 3.752
- ELISA optical density (total anti-ARFP Ig), serum dilution 1/800 [4]: 1.110 and 1.341 and 0.818 and 1.093 and 2.236 and >4.000 and 3.867 and 3.833 and 3.665 and 3.171 and 3.717 and 0.856 and 3.406 and 3.707 and 3.620
- ELISA optical density (total anti-ARFP Ig), serum dilution 1/1600 [4]: 1.589 and 1.086 and 1.084 and 0.771 and 1.427 and >4.000 and 3.813 and 3.843 and 3.612 and 3.055 and 3.832 and 0.510 and 3.562 and 3.780 and 3.976
- Titer (ARFP-specific Ig) [4]: >1600 (13×) and 800 (2×)
